Target: nMagHigh1-C714 (fused polypeptide of nMagHigh1 and a C-terminal side fragment of Cas9)
Assay: cell-based or functional assay

With “N713-pMag (fused polypeptide of an N-terminal side fragment of Cas9 and pMag)” the frequency of HDR (integration of a HindIII site) at human EMX1 locus, RFLP analysis, blue light was 7.2%, the indel frequency at EMX1 locus after 0, 1, 3 and 6 hours of blue light, T7E1 assay was < 1% and the light-dependent Cas9 activity, luciferase plasmid HDR assay in HEK293T cells was 16.4 times.

Reference: US20170298330A1
